# According to a protein production outcome set (Wang et al. 2014):
# Experiment: label from the status in PepcDB records
row,Sequence,protein production
1,MIPTHLPILQVVVPLMAAPVCILLRRPGLCWAWALLIALTTLTMAVGLLAGVLTHGPSAYHLGDWSPPWGIELHVDLLSALVLVLVTATASLVIVYARASFAAEIDPGHHTLAYCLFLLCLTGLLGMAITGDAFNLFVFLEISSLSSYALVALGRDRRALYAAYHYLILGTVGATFYVIGIGFLYMMTGTLNMNDLAQRLPAVAHSRTAVAGVVFLGVGLSLKLALFPLHKWLPAAYSYAPSAVGAFLAATSTKVAFYVMVRLFLGVLAPAFSANLLPGPVSAREMVMVLALAAILSGSFSAIFQSDAKRLLAYSSVSQIGVMVLGLSLFSLDGVAGGLVHMLNHALIKASLFMALGCVFLRIGSVEIADMAGIGRRMPWTMAAFVIGGLSLIGIPGTAGFISKWQLAQSAIAEGWWLAVAALIASSLLAVVYVGKVIEAAYFRPSPAESPSGAPSAPQEAPAMMLAPLWIAALANIGFGLNTTWTLGLAKRAASALMGLPS,failed
2,MSEADGLRQRRPLRPQVVTDDGQVPEVKEGSSFSGRVFRMTFLMLAVSLAIPLLGAMMLLESPIDPQSFSFKEPPFMFGVLHPNTKLRQAERLFENQLSGPESIVNIGDVLFTGTADGRVVKLENGEIETIARFGSGPCKTRDDEPTCGRPLGIRAGPNGTLFVVDAYKGLFEVNPQKRSVKLLLSSETPIEGKKMSFVNDLTVTRDGRKIYFTDSSSKWQRRDYLLLVMEATDDGRLLEYDTVTKEVKVLLDQLQFPNGVQLSPEEDFVLVAETTMARIRRVYVSGLMKGGADMFVENMPGFPDNIRPSSSGGYWVAAATIRANPGFSMLDFLSDKPFIKRMIFKMFSQETVMKFVPRYSLVLEVSDSGAFRRSLHDPDGQVVTYVSEAHEHDGYLYLGSFRSPFICRLSLQSI,failed
3,MTLEWEEFLDPYIQAVGELKIKLRGIRKQYRKQNKHSPIEFVTGRVKPIESIKEKMARRGITYATLEHDLQDIAGLRVMVQFVDDVKEVVDILHKRQDMRIIQERDYITHRKASGYRSYHVVVEYTVDTINGAKTILAEIQIRTLAMNFWATIEHSLNYKYQGDFPDEIKKRLEITARIAHQLDEEMGEIRDDIQEAQALFDPLSRKLNDGVGNSDDTDEEYR,not failed
4,MIRTIQDLLNERVAIGKIVNTHGLKGEVKFFPYTNSEEIVKNLSSVVLYNSEKKAFYNLTVESVRRMNKLFLIRFKSIDTIEAAERIKGCEVFIKYEELPKLSEDEYYFYEILDCDVFYESGENVGKVVDIIETGSNDVLVVRKKKKETLIPMTKDCIVEIDKGAKKIIAKEMEWILEHHHHHH,failed
5,PPLYVPEQLVVHKETHQAHVMIGSRGYNAYDDKRTALYLLNNILGGPGMNSRLNVSLRERRGLVYTVESNLTSYTDTGAFCIYFGTDPEDVDTCLKLTYKELKRMRDVKMTSSQLMAAKKQLIGQIGVASDNNENNALGMAKTFLHYNKYESSESVFRRIEALTAEGLLEVANEMFAEEYLSTLIY,failed
6,MSFRTGERRIWDATATLEALGAADVALWIWEPETDRLRLNGAARALGLGPLAPECSSAAFRALALPQDRAQAEEVLKPREPGSEVVARFRVRGGETCLWRGVWLEEGVRAAGVVAPETKFSASELCDLTGLLDRRSFLARARERLAQEGTHQLVVADLDRLRRLNEALGHERADLVLAALGSRLAAAFPAQSILGRIGEDEFAVLCQPLGYEPSDVLRSALEQPLRVAGFDIHPTLSIGAVSAEGGLDAPDAAELLRRAELAVEAAAAAGRGGAAAYGRAMETDGLSRLALEADLRGAIGRGEITPYFQPIVRLSTGALSGFEALARWIHPRRGMLPPDEFLPLIEEMGLMSELGAHMMHAAAQQLSTWRAAHPAMGNLTVSVNLSTGEIDRPGLVADVAETLRVNRLPRGALKLEVTESDIMRDPERAAVILKTLRDAGAGLALDDFGTGFSSLSYLTRLPFDTLKIDRYFVRTMGNNAGSAKIVRSVVKLGQDLDLEVVAEGVENAEMAHALQSLGCDYGQGFGYAPALSPQEAEVYLNEAYVDGAAPVKARG,failed
7,MSLDFRSADFLRTHISDTMAFYHPRCIDSAGGFFHYFRDDGSIYNATHRHLVSSTRFVFNYAMAYLQFGTAEYLDAVHHGLSYVRDVHRNPATGGYAWTLCDDRVEDDTNHCYGLAFVMLAYSCGLKVGIKQAREWMDETWCLLERHFWDAEYGLYKDEADAQWNFTRYRGQNANMHMCEAMLAAYEASGEQRYLERALVLADRITRRQAAKADGLVWEHYDMRWEVDWDYNRDNPKHLFRPWGFQPGHQTEWAKLLLILDRYIEVEWLVPVARSLFDVAVARSWDAVRGGLCYGFAPDGTICDDDKYFWVQAESLAAAALLATRSGDERYWQWYDRLWAYAWQHMVDHRYGAWYRLLDGDNRKYNDEKSPAGKTDYHTMGACHEVLNVVWTKSEGHHHHHH,not failed
8,HCSADLVLVEPTPLAVLDRIALVTDNGPFDPRKVELANGLAAAAGASLVLGHAVPADATEDQRATVRTYHEDLMGLCTVPVESNIVGTTTPAAMARAVSAADLVVVESDAAWWARLLDNREPQRIAGAFGGPAIVVRPQQAEGPSPVRRLLERVAF,failed
9,MNRNDITILSQQRESVLATNKVLRNTYLLLSLTFIFSALTAYVAFISGARPMNPLLMIVGVYGLMFLTQALRNSVWGLVSVFAFTGFLGYTIGPLLNYYITGFSNGPQIVATALGGTGMIFFALSGYALTTKKDFSYLGGFLFVGVMVALLAMIAGIFIQIPALQLVISAAFVLISSGLILLQTSAIIHEGETNYIMATIGLFVSIYNLFVSLLNLLSAFSGRD,failed
10,MTGHRPACPPIPADVYTRLERRIGRCHLNQRLGIEHDFEARIFGQGRTFFHIENWNRLHTLLRRLLKLSLLYRPGQRAARRIEIRRNEFTLPHLPEAFEGYTLLHISDLHLDMAGDLPDALIRAIGQAGHYDACVLTGDFRARTFGPYRGAIDGLAQVRTHIDKPVFAILGNHDTIRMTPEIEDLGIGVLLNEAREIRQDGASIFLAGVDDPHYYRADNIEKAADPIPQGAVSILLSHSPELYRHAAYADFDIMLCGHTHGGQICLPGGIALTLNARCPRAFGRGYWRYHRMQGYTSAGSGVSILDIRLNCPPEITLHRLSRHRLSKGGCECGGGKGLEHHHHHH,not failed
11,MSSKRLVIVGGGITGLAAAYYAERAFPDLNITLLEAGERLGGKVATYREDGFTIERGPDSYVARKHILTDLIEAIGLGEKLVRNNTSQAFILDTGGLHPIPKGAVMGIPTDLDLFRQTTLLTEEEKQEVADLLLHPSDSLRIPEQDIPLGEYLRPRLGDALVEKLIEPLLSGIYAGNIDQMSTFATYPQFVANEQKAGSLFEGMRLMRPLDQLPQTPQTTIKATGQFLSLETGLESLIERLEEVLERSEIRLETPLLAISREDGRYRLKTDHGPEYADYVLLTIPHPQVVQLLPDAHLPELEQLTTHSTATVTMIFDQQQSLPIEGTGFVVNRRAPYSITACTAIDQKWNHSAPDHTVLRAFVGRPGNDHLVHESDEVLQQAVLQDLEKICGRTLEPKQVIISRLMDGLPAYTVGHADRIQRVREEVLAQYPGIYLAGLAYDGVGLPDCVASAKTMIESIELEQSHTDESVNET,not failed
12,MVERTAVFPAGRHSLYAEHRYSAAIRSGDLLFVSGQVGSREDGTPEPDFQQQVRLAFDNLHATLAAAGCTFDDIIDVTSFHTDPENQFEDIMTVKNEIFSAPPYPNWTAVGVTWLAGFDFEIKVIARIPEQ,not failed
13,MKVIKTAPLIPSEIKVLEKEGNRVKISLAPFEFGYAVTLAHPIRRLLLLSSVGYAPVGLKIEGVHHEFDSLRGVTEDVSLFIMNLKNIRFIAKALVGQDSSLENQSVVVDYSFKGPMELRARDLNSEQIEIVNPEMPLATINEDAQLNFSLIIYKGMGYVPSENTRELMPEGYMPLDGSFTPIKKVVYEIENVLVEGDPNYEKIIFDIETDGQIDPYKAFLSAVKVMSKQLGVFGERPIANTEYSGDYAQRDDAKDLSAKIESMNLSARCFNCLDKIGIKYVGELVLMSEEELKGVKNMGKKSYDEIAEKLNDLGYPVGTELSPEQRESLKKRLEKLEDKGGND,failed
14,MTASVTASVTAPETAPVPIVLAGARGHGRWHLDNIRRLQDRGLVRLAGICELTPLAEEELDGLGVPEQSADFGSLLDATGAAIAVICTPIPTHTDLALTAAERGVHLLLEKPPAPSFAEFRRMADGVAAAGVVCQIGFQSLGSGAVPGIRKLIAEGALGTVAGIGAAGAWARDEAYYRRAPWAGKRRLNGVDVIDGVLTNPLAHAVATALALDGSTRAEDVTDIETELLRANDIESDDTSCVRVTTKSGGRITVAATLCAEEPDEPYVLVHGDRGRITFWYKQDRVLVQRSGHGPQEIEYDRTDLLENLVGHLTHGAELLVTPESTGAFMKVVEAIRQAPDPVALPGDAWELIPGENRRVVRGVDGLVAAAADTLALYSELGASWALPNEVSSR,failed
15,MVTIPIFLIIIGATMAVVVWSAKRTKSAADFYTAGGGITGTQNGWAIAGDYMSAASFLGISGMISLYGYDGFMYSVGWLVAYITVLLIVAEPCRNAGKYTLGDILSFRTEPKVVRAVCAISVVAVSTFYLTAQMVGAGKLMQLLLGIPYKFAIIGVGILMVGYVVFGGMTATTWVQIIKAGLLMTGAGLLSVLVGLKAGMNPFTFFNDIATNPNIIEHVQKAVLKDPVAVAGFDYGQRFLEPGLFLKNPLDQISLGMALVLGTAGMPHILMRFFTVPTAQAARKSVIVAMFIIGSFYILTTLLGFGAAIHVTPQGITAVDKGGNMAAMMLAQQLGGDISPFLGDLLLAFLCAVAFATILAVVSGLVLAASAAIAHDIYVNVIKDGHADQHEQVMAARITSLCVGAMGIIIGIAAEKQNVAHLVALAFAVASSGNLPVVVMSLFWRKFNTAGVVSGLVVGTVASIALVMVSPNMTYPKVVAADAQKVVTKLEEKQAGGAVLTEKEMKDLDKAKADYAKNKDGKSMLGLDKPLIKLKNPGIISIPLGFLAAIIGCLAFPSRRSEEMFDEIYVRQNTGIGMAKAIDH,failed
16,MYKHILVPVDLNEQGFADKAVQLAVWHAKHSNAEIHLLNVLPGIHMSMVATYFPKDAAAQMKNDVRAQLKAFAEKHIAEEVVYKLHIAEGKPYATILDYAERLGADLIVMPSHKRSRIDKVMLGSVASKVVENSPINVMVVKPQG,not failed
17,EKDTIAAEHKQEASVLLNLHRNKINYLIGETMARMTSLSIAIDRPVDIKKMQSILEKTFDSEPRFSGLYFLNAKGDVTASTTELKTKVNLADRSFFIKAKETKKTVISDSYSSRITGQPIFTICVPVLDSKRNVTDYLVAAIQIDYLKNLINLLSPDVYIEVVNQDGKMIFASGQASHAEDQKPVSGYLDDISWNMKVYPNPVTIEELSKS,failed
18,MGFLESFVSFIVYLASTCGYVGIFILNMLEYACLPFPSEIVLPAIGASVASGKYSMIYALPISVIGGVVGTLISYSVGMYAGKKVISFAKRKHKKSKSIFEKIDRLFSRYGKITVFLARLLPFTRTYISLFAGAEKVNKIMFVIFSALGITIMDSFYLLLGYFAYDNKSFIEKALRHYSIGLIIIIVIAIFSYYIYKNLKLKKLKKEN,failed
19,MSEKELELLARIEELERHTWRNSAILRAVAMVAGTAMIGIIVASGVVGGGHGSHWTGPAWNTMWLYGLFAANAVSMFWTTHKD,failed
20,MSLVSLPGLPAMISEISKRNNLPTTAVEEALREALLKGYERFRRSQLMGHQFPEEYFNNFEVELDTEEEGFRVLSTKRIVEEVENSDQQISLKEVLEVAEEAQLGDEVVLDVTPEQKDFGRMAAIQTKQVLLQKLRDQQRKIIQEEFQDLEGTVLNARALRFERQSIIVAVQSSFGQPEVEAELPKREQLPNDNYRANSTFRVYLKRVREGSQRGPQLVVSRAAAGLVVDLFSVEVPEIEEEVVRIVAVAREAKPPSPSVGPRTKIAVDTLERDVDPVGACIGARGSRIHAVVNELRGEKIDVIRWSPDPATYIAQALSPARVDQVYLIHAEERHALVIVAEDQLSLAIGKEGQNVRLAARLTGWKIDIKDPETYARDKEAIEQSILERAAASAQARAEREAAEQEAQAKLEAEMAALEAEEAEELEETPEAIAEVEEEVEEWDQDQGPELGEEEELSLEHHHHHH,not failed
